For the assay, the target named is Pcc1–Kae1 binary complex from Pyrococcus abyssi (Pyrococcus abyssi (strain GE5 / …, UniProt Q9V1Z9,Q9UXT7)). The assay is described as follows: gel filtration.

Experimental findings from publication PMC3814370 (2013) are described below.

Sequence of Pcc1–Kae1 binary complex from Pyrococcus abyssi (Pyrococcus abyssi (Q9V1Z9 whole entry, chain 1 of 2): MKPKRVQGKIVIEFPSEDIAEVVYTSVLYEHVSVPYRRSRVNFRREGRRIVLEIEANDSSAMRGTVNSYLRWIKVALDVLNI
Sequence of Pcc1–Kae1 binary complex from Pyrococcus abyssi (Pyrococcus abyssi (Q9UXT7 whole entry, chain 2 of 2): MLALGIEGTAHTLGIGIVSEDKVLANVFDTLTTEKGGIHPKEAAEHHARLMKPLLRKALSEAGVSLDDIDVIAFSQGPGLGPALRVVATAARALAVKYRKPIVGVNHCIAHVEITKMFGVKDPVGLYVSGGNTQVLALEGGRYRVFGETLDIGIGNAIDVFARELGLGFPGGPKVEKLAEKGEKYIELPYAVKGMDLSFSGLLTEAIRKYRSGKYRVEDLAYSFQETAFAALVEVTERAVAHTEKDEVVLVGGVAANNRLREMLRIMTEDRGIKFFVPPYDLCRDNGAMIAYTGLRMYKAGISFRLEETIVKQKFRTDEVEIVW

B1: Bud32–Cgi121 binary complex from Pyrococcus abyssi (protein)
chain 1: MKLIKQGAEAKIYLAEFSELYFDYPIKVIVKERIKKRYRIPEIDLKLRKERTIREARILRRAKEFGVNVPYVFEVDTKNMIIVMEYIEGERLKELLEKLPMEERLKVCREVGRQIGKLHEAGIVHGDLTTSNMILREGKVYFIDFGLAEFDDTIEAQGVDLHLLKRAMESTHYKWFERGFEEVLKGYIEIRGEDKGREIREKIREIELRGRYRERSWITQ
chain 2: MTPKFKNFKHDNSGQVETYLFEVISKYTMLEIKTKFGKLCIAKVKLASESIERALNLCNDNCQIVSAKCHEEVIFATILAIKAFSSGRNTAKTIKGEILLRLAGVKQIKDAIKIIGARKGENLIIYFGVSDPCSSLKDFISSLGLREEPLKPCDEDEVKRGFERAAIIEAL
With B1, the binding result is reported as “binds”.
